Source: publication PMC3079244 (Biochemistry, 2011)

Tests used:
[1] = target: TylM1 (Streptomyces fradiae, UniProt P95748); assay: X-ray crystal structure, […] Å; assay type: binding; settings: pH 7.0
[2] = target: the molecule itself; assay: crystal structure
[3] = target: the molecule itself; assay: crystal structure; remark: listed apart in the source

Molecule: C[S+](CC[C@H](N)C(=O)O)C[C@H]1O[C@@H](n2cnc3c(N)ncnc32)[C@H](O)[C@@H]1O (some centres unmarked) [SAM]
- X-ray crystal structure, 1.35 Å ([1]; ternary complex with dTDP-phenol, methyl donor site): The SAM cofactor abuts the first three β-strands of the N-terminal domain

Molecule: Cc1cn([C@H]2C[C@H](O)[C@@H](COP(=O)(O)OP(=O)(O)Oc3ccccc3)O2)c(=O)[nH]c1=O [dTDP-phenol]
- X-ray crystal structure, 1.35 Å ([1]; ternary complex with SAM, sugar-nucleotide site): a close-up view of the binding pocket for dTDP-phenol is presented

B1: TylM1 from Streptomyces fradiae (N,N-dimethyltransferase), wild type (enzyme, UniProt P95748 1-255, looked up)
chain: MAHSSATAGPQADYSGEIAELYDLVHQGKGKDYHREAADLAALVRRHSPKAASLLDVACGTGMHLRHLADSFGTVEGLELSADMLAIARRRNPDAVLHHGDMRDFSLGRRFSAVTCMFSSIGHLAGQAELDAALERFAAHVLPDGVVVVEPWWFPENFTPGYVAAGTVEAGGTTVTRVSHSSREGEATRIEVHYLVAGPDRGITHHEESHRITLFTREQYERAFTAAGLSVEFMPGGPSGRGLFTGLPGAKGETR
- stoichiometry N [2]: 2

B2: TylM1 H123N mutant protein (enzyme, Streptomyces fradiae, UniProt P95748 1-255, looked up)
chain: MAHSSATAGPQADYSGEIAELYDLVHQGKGKDYHREAADLAALVRRHSPKAASLLDVACGTGMHLRHLADSFGTVEGLELSADMLAIARRRNPDAVLHHGDMRDFSLGRRFSAVTCMFSSIGNLAGQAELDAALERFAAHVLPDGVVVVEPWWFPENFTPGYVAAGTVEAGGTTVTRVSHSSREGEATRIEVHYLVAGPDRGITHHEESHRITLFTREQYERAFTAAGLSVEFMPGGPSGRGLFTGLPGAKGETR
- binding result [3]: binds

B3: TylM1 H123A mutant protein (enzyme, Streptomyces fradiae, UniProt P95748 1-255, looked up)
chain: MAHSSATAGPQADYSGEIAELYDLVHQGKGKDYHREAADLAALVRRHSPKAASLLDVACGTGMHLRHLADSFGTVEGLELSADMLAIARRRNPDAVLHHGDMRDFSLGRRFSAVTCMFSSIGALAGQAELDAALERFAAHVLPDGVVVVEPWWFPENFTPGYVAAGTVEAGGTTVTRVSHSSREGEATRIEVHYLVAGPDRGITHHEESHRITLFTREQYERAFTAAGLSVEFMPGGPSGRGLFTGLPGAKGETR
- binding result [3]: binds
